Experimental data as given in the Immune Epitope Database (IEDB).

Tests used:
Test in all cases: IEDB peptide-MHC binding, purified MHC/competitive/radioactivity; ≥ and ≤ were set here for values at or beyond the usual limits of such assays
HLA-A*02:01 = target: HLA-A*02:01
HLA-A*02:02 = target: HLA-A*02:02
HLA-A*02:03 = target: HLA-A*02:03
HLA-A*02:06 = target: HLA-A*02:06
HLA-A*68:02 = target: HLA-A*68:02
[1] = source organism: Hepacivirus hominis
[2] = source organism: Vaccinia virus WR
[3] = source organism: Influenza A virus

Row | Sequence | IC50 (HLA-A*02:01; [2]) [nM] | IC50 (HLA-A*02:02; [2]) [nM] | IC50 (HLA-A*02:03; [2]) [nM] | IC50 (HLA-A*02:06; [2]) [nM] | IC50 (HLA-A*68:02; [2]) [nM] | also measured
1 | RLLAPITAYA |  |  |  |  |  | IC50 (HLA-A*02:01; [1]): 29 nM; IC50 (HLA-A*02:02; [1]): 5.2 nM; IC50 (HLA-A*02:03; [1]): 25 nM; IC50 (HLA-A*02:06; [1]): 103 nM; IC50 (HLA-A*68:02; [1]): 94 nM
2 | SLVITYCLV | 174 | 1690 | 201 | 270 | 1400 | 
3 | CVSNLDISSV | 1480 | 52 | 2.3 | 48 | 1030 | 
4 | NMCNSDVSV | 88 | 80 | 30 | 97 | 202 | 
5 | FQVDCFLWH |  |  |  |  |  | IC50 (HLA-A*02:01; [3]): 336 nM; IC50 (HLA-A*02:02; [3]): 216 nM; IC50 (HLA-A*02:03; [3]): 1260 nM; IC50 (HLA-A*02:06; [3]): 93 nM; IC50 (HLA-A*68:02; [3]): 3660 nM
6 | IVPEFAKQYV | 5 | 10 | 18 | 15 | 3.5 | 
7 | LMGHFSWWTA |  |  |  |  |  | IC50 (HLA-A*02:01; source organism: SARS-CoV1): 18 nM; IC50 (HLA-A*02:02; source organism: SARS-CoV1): 19 nM; IC50 (HLA-A*02:03; source organism: SARS-CoV1): 135 nM; IC50 (HLA-A*02:06; source organism: SARS-CoV1): 97 nM; IC50 (HLA-A*68:02; source organism: SARS-CoV1): 82 nM
8 | KMAVEVGSI | 155 | 31 | 2.8 | 119 | 806 | 
9 | YVVVHGYFT |  |  |  |  |  | IC50 (HLA-A*02:01; source organism: SARS-CoV1): 1070 nM; IC50 (HLA-A*02:02; source organism: SARS-CoV1): 342 nM; IC50 (HLA-A*02:03; source organism: SARS-CoV1): 792 nM; IC50 (HLA-A*02:06; source organism: SARS-CoV1): 171 nM; IC50 (HLA-A*68:02; source organism: SARS-CoV1): 212 nM
10 | ETLPELNLSL | 1100 | 52 | 130 | 134 | 648 | 
11 | HILHAYCGI | 1480 | 123 | 66 | 359 | 143 | 
12 | FLAFLLFLVL |  |  |  |  |  | IC50 (HLA-A*02:01; source organism: SARS-CoV1): 11 nM; IC50 (HLA-A*02:02; source organism: SARS-CoV1): 13 nM; IC50 (HLA-A*02:03; source organism: SARS-CoV1): 245 nM; IC50 (HLA-A*02:06; source organism: SARS-CoV1): 2000 nM; IC50 (HLA-A*68:02; source organism: SARS-CoV1): 3810 nM
13 | VNNAVVMPA |  |  |  |  |  | IC50 (HLA-A*02:01; [3]): 468 nM; IC50 (HLA-A*02:02; [3]): 231 nM; IC50 (HLA-A*02:03; [3]): 712 nM; IC50 (HLA-A*02:06; [3]): 828 nM; IC50 (HLA-A*68:02; [3]): 1910 nM
14 | IAACAMLLV |  |  |  |  |  | IC50 (HLA-A*02:01; source organism: SARS-CoV1): 567 nM; IC50 (HLA-A*02:02; source organism: SARS-CoV1): 320 nM; IC50 (HLA-A*02:03; source organism: SARS-CoV1): 387 nM; IC50 (HLA-A*02:06; source organism: SARS-CoV1): 131 nM; IC50 (HLA-A*68:02; source organism: SARS-CoV1): 389 nM
15 | FLTGTFVTA | 15 | 4.7 | 0.71 | 2.1 | 896 | 
16 | RLRQDTEDI | 219 | 230 | 387 | 4580 | 4170 | 
17 | TMSIYIAVA | 136 | 81 | 41 | 786 | 300 | 
18 | FVYVSVMNFI | 704 | 76 | 18 | 7.5 | 57 | 

Row | Sequence | IC50 (HLA-A*02:01; [2]) [nM] | IC50 (HLA-A*02:02; [2]) [nM] | IC50 (HLA-A*02:03; [2]) [nM] | IC50 (HLA-A*02:06; [2]) [nM] | IC50 (HLA-A*68:02; [2]) [nM] | also measured
19 | VLMTHFFSV |  |  |  |  |  | IC50 (HLA-A*02:01; [1]): 1.9 nM; IC50 (HLA-A*02:02; [1]): 4.9 nM; IC50 (HLA-A*02:03; [1]): 2.6 nM; IC50 (HLA-A*02:06; [1]): 6.1 nM; IC50 (HLA-A*68:02; [1]): 103 nM
20 | STTENAAYQV | 1180 | 928 | 4700 | 101 | 15 | 
21 | MVMCGGSLYV |  |  |  |  |  | IC50 (HLA-A*02:01; source organism: SARS-CoV1): 14 nM; IC50 (HLA-A*02:02; source organism: SARS-CoV1): 15 nM; IC50 (HLA-A*02:03; source organism: SARS-CoV1): 10 nM; IC50 (HLA-A*02:06; source organism: SARS-CoV1): 13 nM; IC50 (HLA-A*68:02; source organism: SARS-CoV1): 6.7 nM
22 | IQYRQQLEL | 258 | 511 | 45 | 41 | 3570 | 
23 | SMGNTLTCYV |  |  |  |  |  | IC50 (HLA-A*02:01; [1]): 100 nM; IC50 (HLA-A*02:02; [1]): 44 nM; IC50 (HLA-A*02:03; [1]): 39 nM; IC50 (HLA-A*02:06; [1]): 205 nM; IC50 (HLA-A*68:02; [1]): 2430 nM
24 | YVSVMNFIPI | 127 | 341 | 152 | 0.11 | 55 | 
25 | MLWCKDGHV |  |  |  |  |  | IC50 (HLA-A*02:01; source organism: SARS-CoV1): 30 nM; IC50 (HLA-A*02:02; source organism: SARS-CoV1): 10 nM; IC50 (HLA-A*02:03; source organism: SARS-CoV1): 11 nM; IC50 (HLA-A*02:06; source organism: SARS-CoV1): 362 nM; IC50 (HLA-A*68:02; source organism: SARS-CoV1): 74 nM
26 | RMVSLVTSFL |  |  |  |  |  | IC50 (HLA-A*02:01; source organism: SARS-CoV1): 108 nM; IC50 (HLA-A*02:02; source organism: SARS-CoV1): 1.7 nM; IC50 (HLA-A*02:03; source organism: SARS-CoV1): 12 nM; IC50 (HLA-A*02:06; source organism: SARS-CoV1): 53 nM; IC50 (HLA-A*68:02; source organism: SARS-CoV1): 6.3 nM
27 | ATLNTLITLI | 543 | 32 | 28 | 198 | 1050 | 
28 | VLWAHGFEL |  |  |  |  |  | IC50 (HLA-A*02:01; source organism: SARS-CoV1): 0.4 nM; IC50 (HLA-A*02:02; source organism: SARS-CoV1): 2.4 nM; IC50 (HLA-A*02:03; source organism: SARS-CoV1): 34 nM; IC50 (HLA-A*02:06; source organism: SARS-CoV1): 20 nM; IC50 (HLA-A*68:02; source organism: SARS-CoV1): 3890 nM
29 | NVDIIDLLL | 858 | 461 | 4090 | 22 | 262 | 
30 | MAFDISVNA | 149 | 191 | 15 | 13 | 1.8 | 
31 | YMVTDKTAYI | 4.8 | 0.23 | 0.28 | 6.1 | 1.5 | 
32 | MIHKTYIDV | 1920 | 1400 | 15 | 126 | 269 | 
33 | FLAFVVFLL |  |  |  |  |  | IC50 (HLA-A*02:01; source organism: SARS-CoV1): 0.24 nM; IC50 (HLA-A*02:02; source organism: SARS-CoV1): 0.41 nM; IC50 (HLA-A*02:03; source organism: SARS-CoV1): 88 nM; IC50 (HLA-A*02:06; source organism: SARS-CoV1): 2.6 nM; IC50 (HLA-A*68:02; source organism: SARS-CoV1): 391 nM
34 | ILMTHFFSI |  |  |  |  |  | IC50 (HLA-A*02:01; [1]): 1.3 nM; IC50 (HLA-A*02:02; [1]): 6.7 nM; IC50 (HLA-A*02:03; [1]): 1 nM; IC50 (HLA-A*02:06; [1]): 4.7 nM; IC50 (HLA-A*68:02; [1]): 185 nM
35 | NLETYTRPEI | 1220 | 539 | 1500 | 636 | 2080 | 
